Test results from the supplement of paper PMC9112550, “Optimization of the antimicrobial peptide Bac7 by deep mutational scanning” (BMC Biology, 2022).

Tested on: Escherichia coli TOP10
Assay: shrunken log2 fold change of peptide-encoding DNA abundance (4.5 h post-induction vs induction); higher = less antimicrobial activity (less host growth inhibition)
Details: time post-induction: 4.5 h; library: site-saturation at positions 5, 18, 19, 20
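Note: peptides expressed intracellularly from a pBAD plasmid library in pooled LB shake-flask culture, induced with 0.3% L-arabinose, DNA abundance read by NGS, three biological replicates, DESeq2 with apeglm shrinkage.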

Sequence | shrunken log2 fold change
RRIRLRPPRLPRPRPRPGFHPRP | 0.0368
RRIRLRPPRLPRPRPRPGIFPRP | -0.313
RRIRLRPPRLPRPRPRPGITPRP | -0.322
RRIRLRPPRLPRPRPRPGKDPRP | -0.153
RRIRLRPPRLPRPRPRPGKFPRP | 0.117
RRIRLRPPRLPRPRPRPGPHPRP | -0.0887
RRIRLRPPRLPRPRPRPGPRPRP | 0.693
RRIRLRPPRLPRPRPRPGQDPRP | 0.0899
RRIRLRPPRLPRPRPRPGTKPRP | 0.2
RRIRLRPPRLPRPRPRPGVHPRP | -0.308
RRIRLRPPRLPRPRPRPGWRPRP | 0.317
RRIRLRPPRLPRPRPRPGWTPRP | 0.208
RRIRLRPPRLPRPRPRPHADPRP | -0.299
RRIRLRPPRLPRPRPRPHAQPRP | 0.133
RRIRLRPPRLPRPRPRPHGTPRP | 0.0824
RRIRLRPPRLPRPRPRPHICPRP | -0.162
RRIRLRPPRLPRPRPRPHIDPRP | -0.135
RRIRLRPPRLPRPRPRPHIGPRP | -0.0255
RRIRLRPPRLPRPRPRPHIHPRP | -0.29
RRIRLRPPRLPRPRPRPHKMPRP | -0.355

Sequence | shrunken log2 fold change
RRIRLRPPRLPRPRPRPHKTPRP | 0.0373
RRIRLRPPRLPRPRPRPHNQPRP | -0.479
RRIRLRPPRLPRPRPRPHPFPRP | 0.0808
RRIRLRPPRLPRPRPRPHQIPRP | -0.249
RRIRLRPPRLPRPRPRPHRDPRP | -0.0661
RRIRLRPPRLPRPRPRPHVGPRP | -0.442
RRIRLRPPRLPRPRPRPHVTPRP | -0.198
RRIRLRPPRLPRPRPRPHWEPRP | 0.0215
RRIRLRPPRLPRPRPRPHWHPRP | -0.249
RRIRLRPPRLPRPRPRPHWQPRP | 0.0281
RRIRLRPPRLPRPRPRPHYCPRP | -0.0889
RRIRLRPPRLPRPRPRPICAPRP | 0.0264
RRIRLRPPRLPRPRPRPIEGPRP | 0.0046
RRIRLRPPRLPRPRPRPIEQPRP | -0.0092
RRIRLRPPRLPRPRPRPIEYPRP | -0.426
RRIRLRPPRLPRPRPRPIFHPRP | -0.192
RRIRLRPPRLPRPRPRPIFLPRP | -0.333
RRIRLRPPRLPRPRPRPIGAPRP | -0.0568
RRIRLRPPRLPRPRPRPIGDPRP | -0.118
RRIRLRPPRLPRPRPRPIGHPRP | -0.212

Sequence | shrunken log2 fold change
RRIRLRPPRLPRPRPRPIGVPRP | -0.0539
RRIRLRPPRLPRPRPRPIHCPRP | -0.0842
RRIRLRPPRLPRPRPRPIHLPRP | -0.453
RRIRLRPPRLPRPRPRPIHNPRP | -1.05
RRIRLRPPRLPRPRPRPILIPRP | 0.198
RRIRLRPPRLPRPRPRPILQPRP | -0.129
RRIRLRPPRLPRPRPRPILSPRP | -0.0305
RRIRLRPPRLPRPRPRPIMLPRP | -1.12
RRIRLRPPRLPRPRPRPINPPRP | 0.132
RRIRLRPPRLPRPRPRPINWPRP | -0.434
RRIRLRPPRLPRPRPRPIQCPRP | -0.301
RRIRLRPPRLPRPRPRPIRSPRP | -0.0199
RRIRLRPPRLPRPRPRPIRYPRP | -0.272
RRIRLRPPRLPRPRPRPITAPRP | -0.0526
RRIRLRPPRLPRPRPRPIWGPRP | 0.112
RRIRLRPPRLPRPRPRPIWLPRP | 0.132
RRIRLRPPRLPRPRPRPIWNPRP | 0.0155
RRIRLRPPRLPRPRPRPIYQPRP | -0.385
RRIRLRPPRLPRPRPRPKALPRP | -0.224
RRIRLRPPRLPRPRPRPKAMPRP | -0.023
